Numbering of substitutions follows the chain as printed.
T1: human CD123 (human, UniProt P26951 19-305, limits assumed)
T1 construct: Construct on the chip is not described; also called CD123 chip
T1 sequence (looked up): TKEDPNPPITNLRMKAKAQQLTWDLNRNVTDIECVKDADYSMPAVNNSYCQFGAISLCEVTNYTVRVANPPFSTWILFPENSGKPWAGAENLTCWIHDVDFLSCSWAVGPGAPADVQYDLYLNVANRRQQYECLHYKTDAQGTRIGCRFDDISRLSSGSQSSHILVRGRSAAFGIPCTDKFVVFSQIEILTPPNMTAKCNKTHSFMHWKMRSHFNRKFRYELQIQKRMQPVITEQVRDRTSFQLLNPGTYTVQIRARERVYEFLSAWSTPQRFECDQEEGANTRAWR

B1: 13928B (bispecific antibody)
Heavy Chain 1 (Anti-CD123 Fab-Fc (7G3_H0)): EVQLQQSGPELVKPGASVKMSCKASGYTFTDYYMKWVKQSHGKSLEWIGDIIPSNGATFYNQKFKGKATLTVDRSSSTAYMHLNSLTSEDSAVYYCTRSHLLRASWFAYWGQGTLVTVSAASTKGPSVFPLAPSSKSTSGGTAALGCLVKDYFPEPVTVSWNSGALTSGVHTFPAVLQSSGLYSLSSVVTVPSSSLGTQTYICNVNHKPSDTKVDKKVEPKSCDKTHTCPPCPAPPVAGPSVFLFPPKPKDTLMISRTPEVTCVVVDVKHEDPEVKFNWYVDGVEVHNAKTKPREEEYNSTYRVVSVLTVLHQDWLNGKEYKCKVSNKALPAPIEKTISKAKGQPREPQVYTLPPSREEMTKNQVSLTCDVSGFYPSDIAVEWESDGQPENNYKTTPPVLDSDGSFFLYSKLTVDKSRWEQGDVFSCSVMHEALHNHYTQKSLSLSPGK
Heavy Chain 2 (Anti-CD3 scFv-Fc (aCD3_H1.30_L1.47)): not shown
Light Chain (Anti-CD123 LC (7G3_L0)): DFVMTQSPSSLTVTAGEKVTMSCKSSQSLLNSGNQKNYLTWYLQKPGQPPKLLIYWASTRESGVPDRFTGSGSGTDFTLTISSVQAEDLAVYYCQNDYSYPYTFGGGTKLEIKRTVAAPSVFIFPPSDEQLKSGTASVVCLLNNFYPREAKVQWKVDNALQSGNSQESVTEQDSKDSTYSLSSTLTLSKADYEKHKVYACEVTHQGLSSPVTKSFNRGEC
B2: XENP13243 (bispecific antibody)
heavy: EVQLVESGGGLVQPGGSLRLSCAASGFDFSRSWMNWVRQAPGKGLEWVSEINPDSSTINYATSVKGRFTISRDNSKNTLYLQMNSLRAEDTAVYYCARYGNWFPYWGQGTLVTVSSASTKGPSVFPLAPSSKSTSGGTAALGCLVKDYFPEPVTVSWNSGALTSGVHTFPAVLQSSGLYSLSSVVTVPSSSLGTQTYICNVNHKPSDTKVDKKVEPKSCDKTHTCPPCPAPPVAGPSVFLFPPKPKDTLMISRTPEVTCVVVDVKHEDPEVKFNWYVDGVEVHNAKTKPREEEYNSTYRVVSVLTVLHQDWLNGKEYKCKVSNKALPAPIEKTISKAKGQPREPQVYTLPPSREEMTKNQVSLTCDVSGFYPSDIAVEWESDGQPENNYKTTPPVLDSDGSFFLYSKLTVDKSRWEQGDVFSCSVMHEALHNHYTQKSLSLSPGK
scFv-Fc: not shown
light: DIVMTQSPSSLSASVGDRVTITCRASQNVDTNVAWYQQKPGQSPKALIYSASYRYSGVPDRFTGSGSGTDFTLTISSLQPEDFATYFCQQYDSYPLTFGGGTKLEIKRTVAAPSVFIFPPSDEQLKSGTASVVCLLNNFYPREAKVQWKVDNALQSGNSQESVTEQDSKDSTYSLSSTLTLSKADYEKHKVYACEVTHQGLSSPVTKSFNRGEC
notes: anti-CD38 x anti-CD3; copies: 1 + 1 + 1
B3: XmAb14702 (bispecific antibody)
heavy: B2 heavy with D28T, R31Y, D54Q
scFv-Fc: not shown
light: B2 light with N32W
B4: 13760 7G3_H0L0_Fab_His (Fab, V domains shown)
VH: EVQLQQSGPELVKPGASVKMSCKASGYTFTDYYMKWVKQSHGKSLEWIGDIIPSNGATFYNQKFKGKATLTVDRSSSTAYMHLNSLTSEDSAVYYCTRSHLLRASWFAYWGQGTLVTVSA
VL: DFVMTQSPSSLTVTAGEKVTMSCKSSQSLLNSGNQKNYLTWYLQKPGQPPKLLIYWASTRESGVPDRFTGSGSGTDFTLTISSVQAEDLAVYYCQNDYSYPYTFGGGTKLEIKR
notes: Fab of the murine 7G3 variable regions; also called XENP13760
B5: 13967 7G3_H1.109_L1.57_Fab_His (Fab, V domains shown)
VH: QVQLQQSGAEVKKPGASVKVSCKASGYTFTDYYMKWVKQSHGKSLEWMGDIIPSNGATFYNQKFKGKATLTVDRSTSTAYMELSSLRSEDTAVYYCARSHLLRASWFAYWGQGTLVTVSS
VL: DFVMTQSPDSLAVSLGERATINCKSSQSLLNTGNQKNYLTWYQQKPGQPPKLLIYWASTRESGVPDRFTGSGSGTDFTLTISSLQAEDVAVYYCQNDYSYPYTFGGGTKLEIKR
notes: also called XENP13967
B6: XENP14045 (anti-CD123 x anti-CD3) bispecific (bispecific antibody)
heavy: QVQLQQSGAEVKKPGASVKVSCKASGYTFTDYYMKWVKQSHGKSLEWMGDIIPSNGATFYNQKFKGKATLTVDRSTSTAYMELSSLRSEDTAVYYCARSHLLRASWFAYWGQGTLVTVSSASTKGPSVFPLAPSSKSTSGGTAALGCLVKDYFPEPVTVSWNSGALTSGVHTFPAVLQSSGLYSLSSVVTVPSSSLGTQTYICNVNHKPSDTKVDKKVEPKSCDKTHTCPPCPAPPVAGPSVFLFPPKPKDTLMISRTPEVTCVVVDVKHEDPEVKFNWYVDGVEVHNAKTKPREEEYNSTYRVVSVLTVLHQDWLNGKEYKCKVSNKALPAPIEKTISKAKGQPREPQVYTLPPSREEMTKNQVSLTCDVSGFYPSDIAVEWESDGQPENNYKTTPPVLDSDGSFFLYSKLTVDKSRWEQGDVFSCSVMHEALHNHYTQKSLSLSPGK
scFv-Fc: not shown
light: not shown
notes: XENP13967 has the same CD123 side with a different CD3 scFv

What was measured:
[1] = target: CD123 on KG-1a cells (human, UniProt P26951 19-378); experiment: cell-based or functional assay
[2] = target: T2, CD3 (Homo sapiens (Human), UniProt P07766 23-126; P04234 22-105); experiment: Biacore
T2 construct: not shown: The Fc carrier of the Sino Biological CD3 delta-epsilon-Fc heterodimer; copies: 1 + 1
T2 sequence (P07766 23-126 limits assumed, chain 1 of 2): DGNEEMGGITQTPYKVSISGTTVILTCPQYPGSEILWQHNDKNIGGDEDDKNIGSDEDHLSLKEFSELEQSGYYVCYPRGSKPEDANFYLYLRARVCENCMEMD
T2 sequence (P04234 22-105 limits assumed, chain 2 of 2): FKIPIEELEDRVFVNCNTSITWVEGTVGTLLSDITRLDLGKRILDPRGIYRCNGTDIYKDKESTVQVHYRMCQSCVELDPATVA

[3] = target: T2, CD3; experiment: Biacore; column head 'KD (nM)*', anti-CD3 scFv-Fc H1.30_L1.47
[4] = target: T2, CD3; experiment: Biacore; column head 'KD (nM)*', anti-CD3 scFv-Fc H1.31_L1.47
[5] = target: T1, human CD123; experiment: off-rate screen of Fab-His on a Biacore CD123 chip (Example 3), relative to 7G3 H1L1 Fab
[6] = target: T1, human CD123; experiment: Biacore, Fab-His on CD123 (Example 3; the sheet names no assay)
[7] = target: T1, human CD123; experiment: SPR sensorgrams of the Fab on CD123 (highest trace about 153 RU); the value is printed over the panel without a name and equals the rounded KD of Figure 127
[8] = target: T1, human CD123; experiment: SPR sensorgrams on CD123 (highest trace about 160 RU); the value is printed over the panel without a name and equals the rounded KD of Figure 127
[9] = target: T3, human CD3 (human, UniProt P07766 23-126; P04234 22-105); experiment: method not stated in the legend of FIG. 142
T3 construct: The legend says only human CD3
T3 sequence (P07766 23-126, chain 1 of 2): as the sequence (P07766 23-126 limits assumed, chain 1 of 2) above
T3 sequence (P04234 22-105, chain 2 of 2): as the sequence (P04234 22-105 limits assumed, chain 2 of 2) above

[10] = target: T4, cyno CD3 (cynomolgus monkey, UniProt Q95LI5 22-117; Q95LI8 22-105); experiment: method not stated in the legend of FIG. 143
T4 construct: The legend says only cyno CD3; also called cynomolgus monkey CD3
T4 sequence (Q95LI5 22-117, form in doubt, chain 1 of 2): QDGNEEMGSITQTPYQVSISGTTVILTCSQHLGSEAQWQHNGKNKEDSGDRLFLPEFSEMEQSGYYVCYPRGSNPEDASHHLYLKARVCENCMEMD
T4 sequence (Q95LI8 22-105, form in doubt, chain 2 of 2): as the sequence (P04234 22-105 limits assumed, chain 2 of 2) above, with I5V, N15K, I20V, S32T, D33N, I34N, T64A, S74N, V83L counted along it

Fold Decrease in CD3 binding from H1.30_L1.47 [2] [fold]	Ka [6] [M⁻¹]	Kd [6] [nM]	koff [6] [s⁻¹]	kon [6] [M⁻¹ s⁻¹]	also measured	Binder
					RTCC % of KG-1a cells: EC50 (read off the curve) [1]: ~0.8 ng/mL	B1
1					Kd [3]: 4.91 nM	B2
330					Kd [4]: 1640 nM	B3
	6.25e+09	0.16	0.000108	674000	Fold improvement in off-rate vs. H1L1 [5]: 7.21 fold; Kd [7]: 0.2 nM	B4
	1.05e+10	0.0954	6.25e-05	655000	Kd [8]: 0.1 nM	B5
					Kd [9]: 8.1 nM; Kd [10]: 5.7 nM	B6
